No end group written: not given here. *: point of attachment. BODIPYFLEthylmaleimide = Cc1cc(C)n2c1C=C1C=CC(CCC(=O)NCCN3C(=O)CC(*)C3=O)=[N+]1[B-]2(F)F
Key:
[1] = biological target: Bodipy-FL Mps1(137–171) (S. cerevisiae); experiment: fluorescence polarisation; direct titration: 2-fold serial dilutions of Ndc80c^dwarf (from 860 uM stock) added to 20 nM (final) Bodipy-FL peptide; 20 mM Hepes pH 7.2, 150 mM NaCl, 2 mM TCEP; 25 °C; triplicate
Ndc80c^dwarf [2] = experiment: Fluorescence polarization competition, reporter Bodipy-FL Mps1(137–171); assay type: binding, S. cerevisiae; details: direct titration (Figure 3A) and competition with Bodipy-FL Mps1(137–171) (Figure 3B)
From the text: We measured by fluorescence polarization the affinity of Ndc80^dwarf, a shortened version of Ndc80c[51], for a peptide comprising Mps1 residues 137–171, plus a C-terminal cysteine for labeling. We labeled the peptide with the Bodipy fluorophore and determined fluorescence anisotropy as a function of Ndc80c^dwarf concentration (Figure 3A). We then used unlabeled wild-type and mutant peptides in a competition format, at a fixed Ndc80c^dwarf concentration (Figures 3B,C). The mutant peptides corresponded to mutations characterized in one of the accompanying papers. […] Mutating either the basic residues or the hydrophobic residues in the first part of the consensus motif or the conserved arginine at the end of the second part lowered affinity (raised the Ki) by roughly two logs; mutating both the final arginine and the hydrophobic residues eliminated any detectable competition.
Figure 3. Fluorescence polarization measurements of Ndc80c^dwarf binding peptides from the N-terminal extensions of Mps1 and Ipl1. (A) Polarization of fluorescence from 20 nM Bodipy-FL Mps1(137–171) (Mps1 residues 137–171 plus a C-terminal cysteine modified with Bodipy-FL -- see Methods) and Bodipy-FL Ipl1 (26–39;45–59) as a function of Ndc80c^dwarf concentration. (B) Competition binding experiment: unlabeled competitor peptides (see figure annotation) were added in twofold serial dilutions to Bodipy-FL Mps1(137–171) and Ndc80c^dwarf at final concentrations of 20 nM and 500 nM respectively. Loss of polarization indicates displacement of bound Bodipy-FL Mps1(137–171) by the competitor. (C) As in (B), with competitor Mps1(137–171) peptides containing mutations that reduce affinity for Ndc80c[40]. (D) Polarization of fluorescence from 20 nM Bodipy-FL Mps1(137–171) as a function of the concentration of Ndc80c^dwarf bearing mutations in Nuf2 that interfere with its Mps1 interaction in cells. (E) As in (B), but with 20 nM Bodipy-FL Ipl1 (26–39;45–59) as the fluorescent reporter and 27μM Ndc80c^dwarf. […] For the Ipl1 peptide, the second copy of the motif, not used for the fluorescence polarization experiments, is shown in the bottom line.
Mps1 (137–171), Ipl1 (26–39;45–59), and Dam1 (254–270;290–305) peptides with added C-terminal cysteines, were synthesized by the Tufts University Core Facility. […] Fluorescence polarization was measured at 25°C with an Envision plate reader (Perkin Elmer) equipped with a filter set optimized for fluorescence polarization of FITC, which has the same absorption and emission spectra as those of Bodipy FL. […] Fluorescence polarization was measured in triplicate. […] An equal volume of a buffer-matched solution containing 40 nM Bodipy-FL labelled peptide and 1 μM Ndc80c^dwarf was added to each of the dilutions, and fluorescence polarization was measured in triplicate. […]

Ipl1 = biological target: T1, Ipl1 (Saccharomyces cerevisiae (strain ATCC …, UniProt P38991)); experiment: FP direct, Bodipy peptide, Ndc80c dwarf
T1 chain: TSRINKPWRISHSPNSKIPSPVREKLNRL

Mps1 = biological target: T2, Mps1 (Saccharomyces cerevisiae (strain ATCC …, UniProt P54199)); experiment: FP direct, Bodipy peptide, Ndc80c dwarf
T2 chain: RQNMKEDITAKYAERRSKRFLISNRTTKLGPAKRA

Ndc80c^dwarf [3] = biological target: T3, Ndc80c^dwarf (S. cerevisiae, UniProt P40460 1-691; Q04477 1-213; P40014 1-221); experiment: fluorescence polarisation; competition: 2-fold serial dilutions of unlabeled peptide (2 mM stock) mixed with an equal volume giving 20 nM Bodipy-FL Mps1(137–171) and 500 nM Ndc80c^dwarf; 20 mM Tris pH 7.2, 100 mM NaCl, 2 mM TCEP; 25 °C; triplicate
T3 chain 1: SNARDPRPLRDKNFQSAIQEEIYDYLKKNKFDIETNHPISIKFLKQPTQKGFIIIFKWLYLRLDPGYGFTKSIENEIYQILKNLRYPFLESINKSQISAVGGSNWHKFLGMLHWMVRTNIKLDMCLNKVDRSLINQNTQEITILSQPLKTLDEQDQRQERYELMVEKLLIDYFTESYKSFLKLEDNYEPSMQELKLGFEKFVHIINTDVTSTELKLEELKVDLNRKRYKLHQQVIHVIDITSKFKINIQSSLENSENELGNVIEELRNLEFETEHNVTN
T3 chain 2: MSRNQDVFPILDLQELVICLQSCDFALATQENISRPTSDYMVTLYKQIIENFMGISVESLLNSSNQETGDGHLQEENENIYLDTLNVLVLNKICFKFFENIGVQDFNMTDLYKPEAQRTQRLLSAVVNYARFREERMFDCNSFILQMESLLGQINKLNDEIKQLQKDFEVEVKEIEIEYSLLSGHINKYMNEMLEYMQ
T3 chain 3: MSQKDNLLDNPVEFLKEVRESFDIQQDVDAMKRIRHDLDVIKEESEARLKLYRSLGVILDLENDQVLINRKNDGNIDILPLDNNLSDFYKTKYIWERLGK
T3 chain 4: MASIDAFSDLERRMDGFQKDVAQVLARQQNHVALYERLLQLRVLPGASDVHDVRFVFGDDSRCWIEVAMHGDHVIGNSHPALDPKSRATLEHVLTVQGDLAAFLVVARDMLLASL

[4] = biological target: T4, Ndc80c^dwarf, P40460;Q04477;P40014; experiment: fluorescence polarization competition; details: chain shown with the change; point at the highest competitor concentration (about 1e3 µM); 20 nM Bodipy-FL Mps1(137–171), 500 nM Ndc80c^dwarf; lower polarization = more displacement of the …; parent: est. 41; read off a plot
T4 chain 1: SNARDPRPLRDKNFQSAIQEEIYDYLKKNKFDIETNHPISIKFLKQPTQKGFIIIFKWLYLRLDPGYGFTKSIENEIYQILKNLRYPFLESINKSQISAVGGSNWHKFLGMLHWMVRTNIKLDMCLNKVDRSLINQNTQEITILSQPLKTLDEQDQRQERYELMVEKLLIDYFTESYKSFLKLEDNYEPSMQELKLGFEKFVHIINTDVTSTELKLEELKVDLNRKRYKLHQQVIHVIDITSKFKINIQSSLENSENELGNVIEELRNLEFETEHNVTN
T4 chain 2: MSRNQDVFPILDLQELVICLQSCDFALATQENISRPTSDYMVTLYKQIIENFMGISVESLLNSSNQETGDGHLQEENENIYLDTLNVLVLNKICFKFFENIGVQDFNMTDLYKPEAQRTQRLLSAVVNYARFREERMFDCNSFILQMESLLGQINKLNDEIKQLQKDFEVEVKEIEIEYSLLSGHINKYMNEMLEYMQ
T4 chain 3: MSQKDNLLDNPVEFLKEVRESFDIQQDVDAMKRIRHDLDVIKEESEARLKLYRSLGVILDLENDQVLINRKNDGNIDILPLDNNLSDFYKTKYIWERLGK
T4 chain 4: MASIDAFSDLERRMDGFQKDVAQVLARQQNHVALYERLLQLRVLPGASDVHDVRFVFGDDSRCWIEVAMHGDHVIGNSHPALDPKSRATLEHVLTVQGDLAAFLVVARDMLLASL

Ndc80c^dwarf [5] = biological target: T3, Ndc80c^dwarf; experiment: FP
Bodipy-FL Mps1(137–171) = biological target: T5, Bodipy-FL Mps1(137–171); experiment: fluorescence polarization; details: chain shown with the change; 20 nM Bodipy-FL Mps1(137–171); Ndc80c^dwarf mutant titrated
T5 chain: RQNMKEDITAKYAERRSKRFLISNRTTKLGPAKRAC

Molecule: Ndc80c^dwarf bearing the Nuf2 F8A P9A mutations (from UniProt P40460 1-691; Q04477 1-213; P40014 1-221) (complex)
- loss of affinity against wild-type Ndc80c^dwarf (logs) [1]: 2 logs

Molecule: Ndc80c^dwarf bearing the Nuf2 N128A mutation (from UniProt P40460 1-691; Q04477 1-213; P40014 1-221) (complex)
- loss of affinity against wild-type Ndc80c^dwarf (logs) [1]: 2 logs

Molecule: RRKSILHTIRNSIASGARISLGSGAARVVNGPVTC [Dam1 (254–270;290–305)]
- relative affinity of peptides for Ndc80c^dwarf (comparison in words) (Ndc80c^dwarf [2]): nearly the same

Molecule: TSRINKPWRISHSPNSKIPSPVREKLNRLC [Ipl1 (26–39;45–59)]
- relative affinity of peptides for Ndc80c^dwarf (comparison in words) (Ndc80c^dwarf [2]): bound more weakly than those from Dam1 and Mps1

B1: Ndc80-Nuf2 (protein)
chain 1: MSRNQDVFPILDLQELVICLQSCDFALATQENISRPTSDYMVTLYKQIIENFMGISVESLLNSSNQETGDGHLQEENENIYLDTLNVLVLNKICFKFFENIGVQDFNMTDLYKPEAQRTQRLLSAVVNYARFREERMFDCNSFILQMESLLGQ
chain 2: RDPRPLRDKNFQSAIQEEIYDYLKKNKFDIETNHPISIKFLKQPTQKGFIIIFKWLYLRLDPGYGFTKSIENEIYQILKNLRYPFLESINKSQISAVGGSNWHKFLGMLHWMVRTNIKLDMCLNKVDRSLINQNTQEITILSQPLKTLDEQDQRQERYELMVEKLLIDYFTESYKSFLKLEDNYEPSMQELKLGFEKFVHIINTD
- Kd (Ipl1): 18.8 µM
- Kd (Mps1): 0.28 µM

Molecule: RQNMKEDITAKYAEDDSKDFLISNRTTKLGPAKRAC [Mps1 R151D R152D R155D peptide (137–171)]
- rise of Ki against the wild-type Mps1 peptide (logs) (Ndc80c^dwarf [3]): 2 logs

Molecule: RQNMKEDITAKYAERRSKRDAISNRTTKLGPAKSAC [Mps1 (137–171) peptide, unlabeled F156D; L157A; R170S]
- response [4]: 76 mP

Molecule: RQNMKEDITAKYAERRSKRFLISNRTTKLGPAKSAC [Mps1 R170S peptide (137–171)]
- rise of Ki against the wild-type Mps1 peptide (logs) (Ndc80c^dwarf [3]): 2 logs

Molecule: RQNMKEDITAKYAERRSKRDAISNRTTKLGPAKRAC [Mps1 F156D L157A peptide (137–171)]
- rise of Ki against the wild-type Mps1 peptide (logs) (Ndc80c^dwarf [3]): 2 logs

Molecule: RQNMKEDITAKYAERRSKRFLISNRTTKLGPAKRAC(BODIPYFLEthylmaleimide) [Bodipy-FL Mps1(137–171)]
- Kd (Ndc80c^dwarf [5]): 0.28 µM

B2: Ndc80c^dwarf, P40460;Q04477;P40014 Nuf2:N128A (protein)
chain 1: SNARDPRPLRDKNFQSAIQEEIYDYLKKNKFDIETNHPISIKFLKQPTQKGFIIIFKWLYLRLDPGYGFTKSIENEIYQILKNLRYPFLESINKSQISAVGGSNWHKFLGMLHWMVRTNIKLDMCLNKVDRSLINQNTQEITILSQPLKTLDEQDQRQERYELMVEKLLIDYFTESYKSFLKLEDNYEPSMQELKLGFEKFVHIINTDVTSTELKLEELKVDLNRKRYKLHQQVIHVIDITSKFKINIQSSLENSENELGNVIEELRNLEFETEHNVTN
chain 2: MSRNQDVFPILDLQELVICLQSCDFALATQENISRPTSDYMVTLYKQIIENFMGISVESLLNSSNQETGDGHLQEENENIYLDTLNVLVLNKICFKFFENIGVQDFNMTDLYKPEAQRTQRLLSAVVAYARFREERMFDCNSFILQMESLLGQINKLNDEIKQLQKDFEVEVKEIEIEYSLLSGHINKYMNEMLEYMQ
chain 3: MSQKDNLLDNPVEFLKEVRESFDIQQDVDAMKRIRHDLDVIKEESEARLKLYRSLGVILDLENDQVLINRKNDGNIDILPLDNNLSDFYKTKYIWERLGK
chain 4: MASIDAFSDLERRMDGFQKDVAQVLARQQNHVALYERLLQLRVLPGASDVHDVRFVFGDDSRCWIEVAMHGDHVIGNSHPALDPKSRATLEHVLTVQGDLAAFLVVARDMLLASL
- Kd (Bodipy-FL Mps1(137–171)): 7.4 µM

B3: Ndc80c^dwarf, P40460;Q04477;P40014 Nuf2:F8A; Nuf2:P9A (protein)
chain 1: SNARDPRPLRDKNFQSAIQEEIYDYLKKNKFDIETNHPISIKFLKQPTQKGFIIIFKWLYLRLDPGYGFTKSIENEIYQILKNLRYPFLESINKSQISAVGGSNWHKFLGMLHWMVRTNIKLDMCLNKVDRSLINQNTQEITILSQPLKTLDEQDQRQERYELMVEKLLIDYFTESYKSFLKLEDNYEPSMQELKLGFEKFVHIINTDVTSTELKLEELKVDLNRKRYKLHQQVIHVIDITSKFKINIQSSLENSENELGNVIEELRNLEFETEHNVTN
chain 2: MSRNQDVAAILDLQELVICLQSCDFALATQENISRPTSDYMVTLYKQIIENFMGISVESLLNSSNQETGDGHLQEENENIYLDTLNVLVLNKICFKFFENIGVQDFNMTDLYKPEAQRTQRLLSAVVNYARFREERMFDCNSFILQMESLLGQINKLNDEIKQLQKDFEVEVKEIEIEYSLLSGHINKYMNEMLEYMQ
chain 3: MSQKDNLLDNPVEFLKEVRESFDIQQDVDAMKRIRHDLDVIKEESEARLKLYRSLGVILDLENDQVLINRKNDGNIDILPLDNNLSDFYKTKYIWERLGK
chain 4: MASIDAFSDLERRMDGFQKDVAQVLARQQNHVALYERLLQLRVLPGASDVHDVRFVFGDDSRCWIEVAMHGDHVIGNSHPALDPKSRATLEHVLTVQGDLAAFLVVARDMLLASL
- Kd (Bodipy-FL Mps1(137–171)): 12.5 µM
